Data as given in US20210030838A1, “CHEMOTAXIS-POTENTIATING PEPTIDES AND USES THEREOF” (University of Copenhagen, priority 2017, published 2021).

Assays:
[1] = biological target: T1, CCR7 (Homo sapiens, UniProt P32248); test: CCR7 signalling via Gαi (cAMP decrease, Camyel BRET) in transfected CHO cells; assay type: cell-based; conditions: BRET ratio; for G-protein signalling via CCR7 induced by the chemokine itself (comparison): FIG. 4A-D; for effect of peptide on CCL19-induced CCR7 signalling / effect of peptide on CCL19 chimera-induced CCR7 signalling / effect of peptide on full-length CCL21-induced CCR7 signalling / effect of peptide on tailless CCL21-induced CCR7 signalling: peptide 10 μM
T1 construct: expressed in transfected cells; host or cells: CHO cells, transient lipofectamine co-transfection with the Camyel cAMP BRET sensor
T1 sequence (P32248 25-378): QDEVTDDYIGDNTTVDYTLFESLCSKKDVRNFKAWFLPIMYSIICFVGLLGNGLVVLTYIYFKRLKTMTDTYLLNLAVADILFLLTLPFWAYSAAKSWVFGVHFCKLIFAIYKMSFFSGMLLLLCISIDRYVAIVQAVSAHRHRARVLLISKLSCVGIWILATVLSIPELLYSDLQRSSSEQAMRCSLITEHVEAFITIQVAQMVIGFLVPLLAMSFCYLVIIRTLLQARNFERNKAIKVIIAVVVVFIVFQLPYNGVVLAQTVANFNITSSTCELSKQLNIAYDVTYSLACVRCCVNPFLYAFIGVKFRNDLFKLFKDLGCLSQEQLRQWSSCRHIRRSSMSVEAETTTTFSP
Protocol: CCR7 signalling induced by CCL19, CCL21, CCL19 chimera (CCL19 with CCL21 tail) and tailless CCL21 was investigated. Signalling was detected as a decrease in cAMP which is reflected by an increase in BRET (Bioluminescence resonance energy transfer) ratio.
CHO cells were grown in RPMI medium with 10% FBS and 1% Penicillin/Streptomycin. Cells where seeded in a concentration yielding 1,000,000 cells/well on transfection day (using 6-well-plates).
Cells were transfected with CCR7 and Camyel-encoding plasmids (in 1:5 ratio) using lipofectamine with a total of […] of DNA and […] lipofectamine per well. After 24 hours, the cells where washed in PBS and resuspended in PBS with glucose (final concentration 5 mM).
After harvesting, cells where pooled in two groups. One group was used as a control, whereas the other was supplemented with SEQ ID NO: 1 (CCL21 tail peptide (D1-4)) in a final concentration of 10 μM.
The cells where plated in a 96-well black-white iso plate according to setup. Coelenterazine (final concentration of 5 μM) was added and cells were incubated for 10 min. The 4 ligands (CCL19, CCL21, CCL19 chimera, and tailless CCL21) were added to respective wells. An equal amount chemokine buffer was added to wells without ligands. Forskolin was added to the wells 5 min after addition of ligands.
The BRET ratio was measured as the ratio eYFP/RLuc (BRET 525 emission/BRET 485 emission). In the absence of ligand, bioluminescence resonance energy transfer (BRET) between RLuc and eYFP, both harboured by the Camyel sensor, is high, giving rise to emission from both RLuc and eYFP and a concomitant high BRET ratio. When cAMP binds to the camyel sensor, bioluminescence resonance energy transfer from RLuc to eYFP is decreased, lowering emission from eYFP and thus lowering the BRET ratio. This means that stimulation of receptors that signal via an increase in cAMP leads to a decrease in BRET ratio. The opposite is the case upon stimulation of chemokine receptors that signal via a decrease in cAMP, giving rise to an increase in eYFP and thus BRET ratio.

[2] = tested on: neutrophil; conditions: through inhibition of GAG-binding of CXCL8; cited from earlier work
[3] = tested on: monocyte derived human DCs (moDC); test: Ibidi 3D μ-slide chemotaxis assay of monocyte derived human DCs (moDC); assay type: cell-based; conditions: for potentiating effect on CCL21 induced chemotaxis of moDC (in words): FIG. 3, 6, 7, 8; for potentiation of moDC chemotaxis induced by CCL19: CCL19 1 and 10 nM, FIG. 1 column 5-8
Protocol: Ibidi3D μ-slide chemotaxis assay. Mature monocyte derived human DCs were thawed by adding pre-warmed X-vivo, 2% FCS and Glutamine, dissolving in a total of 10 ml of medium. After centrifugation (220×g, 5 min), the DCs were resuspended in fresh medium and left to acclimatize for 20 min.
The collagen mixture with cells was prepared according to the manufacturer's protocol. Briefly, 10 μl 7.5% NaHCO3 was mixed with 20 μl 10×MEM and 150 μl Pure Col was added. After mixing, 90 μl of a mixture of DCs (1×10^6 cells/ml) and CCL21 Tail peptide (final concentration 10 μM) was added. The cell/collagen solution was transferred to the ibidi μ-slide channel holding 6 μl. The collagen with cells was allowed to crosslink in the incubator for 45 minutes in a humidified petridish (holding napkins wetted in sterile water). While filling sink and source reservoirs, the channel and second reservoir were kept plugged. Medium with chemokine buffer (X-vivo 15, 2% HS, glutamine) and Tail-peptide was added to the sink (60 μl), and medium with chemokine plus Tail-peptide was added to the source (60 μl). The setup was transferred to Time-lapse. Cells were tracked for 10 hours and films were analyzed using Autozell tracking program. A population based chemotactic index (CI) was extracted using MatLab.

[4] = tested on: monocyte derived human DCs (moDC); test: as above; assay type: cell-based; conditions: 10 nM CCL21; peptide dose dependent; FIG. 1 column 1-4
[5] = tested on: CT26-FL3-luc cancer cells; test: In vivo cancer growth of CT26-FL3-luc cells in Balb/c mice (bioluminescence, IVIS); conditions: FIG. 5; for tumor growth (bioluminescent signal, total flux): Balb/c mice
Protocol: SEQ ID NO: 1 was tested for its effect on in vivo cancer growth in mice. Female Balb/c mice were injected intraperitoneally with 1.5×10^5 CT26-FL3-luc cancer cells on day 0. The CT26-FL3-luc cell line is derived from a highly metastatic murine colorectal cancer and has been engineered to express luciferase. On days 1, 2, and 3, the mice were injected intraperitoneally with either 0.25 μg murine CCL21, 20 μg human CCL21-Tail peptide (SEQ ID NO: 1), or vehicle (PBS). The CCL21 concentration was determined based on previously published in vivo experiments using CCL21. Administration of SEQ ID NO: 1 functions by a different mechanism than administration of CCL21 as SEQ ID NO: 1 affects the distribution of endogenous CCL21 in the surrounding tissue. Cancer growth was followed over time in live animals by injecting luciferin intraperitoneally and measuring the bioluminescent signal arising from the luciferase-expressing cancer cells using an In Vivo Imaging System (IVIS®) scanner. The bioluminescent signal (total flux) was used to quantify the cancer growth. The number of mice per group was 5-7, and data is shown as mean±SEM.

[6] = tested on: tumour cells; conditions: CCL21 administered to tumor sites; cited from earlier work

Molecule: CCL19: chemokine, endogenous ligand of CCR7
- G-protein signalling via CCR7 induced by the chemokine itself (comparison) [1]: more potent than CCL21

Molecule: CXCL9(74-103): CXCL9 C-terminal peptide capable of binding GAGs (Vanheule et al. 2017) (KKKQKNGKKHQKKKVLKVRKSQRSRQKKTT; UniProt Q07325 96-125, looked up, fragment)
- CXCL8-induced neutrophil migration [2]: inhibit CXCL8-induced neutrophil migration

Molecule: KDRGASKTG KKGKGSKGCK RTERSQTPKG P (KDRGASKTGKKGKGSKGCKRTERSQTPKGP; listed as Homo sapiens) [SEQ ID NO: 6, CCL21 82-111]
- potentiating effect on CCL21 induced chemotaxis of moDC (in words) [3]: reduced capability to potentiate chemotaxis

Molecule: PSPQKPAQGCRKDRGASKTGK (PSPQKPAQGCRKDRGASKTGK; listed as Homo sapiens) [SEQ ID NO: 36, C terminally truncated fragment of CCL21 71-111]
- potentiating effect on CCL21 induced chemotaxis of moDC (in words) [3]: did not potentiate chemotaxis

Molecule: PSPQKPAQGCRKDRGASKTGKKGKGSKGCKRTERSQTPKGP (PSPQKPAQGCRKDRGASKTGKKGKGSKGCKRTERSQTPKGP; listed as Homo sapiens) [SEQ ID NO: 1, full length C-terminal tail of CCL21, CCL21 71-111 (D1-D4)]
- potentiation of moDC chemotaxis induced by CCL21 [4]: up to 26 fold
- tumor growth (bioluminescent signal, total flux) ([5]; 20 μg peptide intraperitoneally on days 1, 2, 3): decreased tumor growth
- effectiveness on tumor growth compared with CCL21 treatment ([5]; 20 μg peptide vs 0.25 μg murine CCL21, intraperitoneally): more effective than treatment with the chemokine CCL21
- effect of peptide on CCL19-induced CCR7 signalling ([1]; FIG. 4): no effect
- effect of peptide on CCL19 chimera-induced CCR7 signalling ([1]; FIG. 4): potentiated
- effect of peptide on full-length CCL21-induced CCR7 signalling ([1]; FIG. 4): potentiated
- effect of peptide on tailless CCL21-induced CCR7 signalling ([1]; FIG. 4): no effect
- effect of peptide on CCL19-induced CCR7 signalling ([1]; FIG. 4, listed as CCL21 71-111): essentially no difference in CCR7 signalling
- effect of peptide on CCL19 chimera-induced CCR7 signalling ([1]; FIG. 4, listed as CCL21 71-111): increased CCR7 signalling
- effect of peptide on full-length CCL21-induced CCR7 signalling ([1]; FIG. 4, listed as CCL21 71-111): increased CCR7 signalling
- effect of peptide on tailless CCL21-induced CCR7 signalling ([1]; FIG. 4, listed as CCL21 71-111): essentially no difference in CCR7 signalling
- potentiation of moDC chemotaxis induced by CCL19 ([3]; peptide 10 uM): less than two fold
- potentiation of moDC chemotaxis induced by CCL19 ([3]; peptide 10 uM, listed as CCL21 71-111): only two fold
- potentiation of moDC chemotaxis induced by CXCL12gamma ([3]; CXCL12gamma 20 and 100 nM, peptide 10 uM, FIG. 1 column 9-12): no strong chemotaxis signal
- potentiating effect on CCL21 induced chemotaxis of moDC (in words) [3]: retained full potency

Molecule: RKDRGASKTGKKGKGSKGCKRTERSQTPKGP (RKDRGASKTGKKGKGSKGCKRTERSQTPKGP; listed as Homo sapiens) [SEQ ID NO: 4, CCL21 81-111 (D2-D4)]
- potentiating effect on CCL21 induced chemotaxis of moDC (in words) [3]: retained full potentiating effect

Molecule: TG KKGKGSKGCK RTERSQTPKG P (TGKKGKGSKGCKRTERSQTPKGP; listed as Homo sapiens) [SEQ ID NO: 13, CCL21 89-111]
- potentiating effect on CCL21 induced chemotaxis of moDC (in words) [3]: retain full potentiating effect

B1: murine CCL21: murine chemokine CCL21 injected intraperitoneally as comparison treatment (protein, UniProt P84444 24-133, looked up)
C-C motif chemokine 21a: SDGGGQDCCLKYSQKKIPYSIVRGYRKQEPSLGCPIPAILFSPRKHSKPELCANPEEGWVQNLMRRLDQPPAPGKQSPGCRKNRGTSKSGKKGKGSKGCKRTEQTQPSRG
- tumor growth (bioluminescent signal, total flux) ([5]; 0.25 μg murine CCL21 intraperitoneally on days 1, 2, 3): decreased tumor growth

B2: CCL19 chimera: CCL19 with CCL21 Tail peptide attached at the C-terminus (protein)
chain: GTNDAEDCCLSVTQKPIPGYIVRNFHYLLIKDGCRVPAVVFTTLRGRQLCAPPDQPWVERIIQRLQRTSAKMKRRSSPSPQKPAQGCRKDRGASKTGKKGKGSKGCKRTERSQTPKGP
- G-protein signalling via CCR7 induced by the chemokine itself (comparison) [1]: resembles CCL21 signalling

B3: SDGGAQDCCLKYSQRKIPAKVVRSYRKQEPSLGCSIPAILFLPRKRSQAELCADPKELWVQQLMQHLDKTPSPQKPAQGCRKDRGASKTGKKGKGSKGCKRTERSQTPKGP (protein, listed as Homo sapiens)
chain: SDGGAQDCCLKYSQRKIPAKVVRSYRKQEPSLGCSIPAILFLPRKRSQAELCADPKELWVQQLMQHLDKTPSPQKPAQGCRKDRGASKTGKKGKGSKGCKRTERSQTPKGP
notes: chemokine, endogenous ligand of CCR7; full length CCL21 without the signal peptide
- growth of tumour cells [6]: reduced growth of the tumour cells
